Measurements: PMC9482650, “Quantitative fragmentomics allow affinity mapping of interactomes” (Nature Communications, 2022)

T1: HTRA4, P83105
T1 sequence (P83105 378-476, limits assumed, looked up): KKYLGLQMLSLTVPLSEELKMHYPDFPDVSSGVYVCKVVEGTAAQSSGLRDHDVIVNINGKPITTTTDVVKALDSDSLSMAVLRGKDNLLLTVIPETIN

T2: NHERF3_4, Q5T2W1
T2 sequence (Q5T2W1 373-468, limits assumed, looked up): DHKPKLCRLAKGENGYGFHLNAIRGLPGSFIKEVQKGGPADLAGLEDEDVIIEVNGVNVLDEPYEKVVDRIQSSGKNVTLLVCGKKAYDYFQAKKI

T3: APBA2_2, Q99767
T3 sequence (Q99767 654-744, limits assumed, looked up): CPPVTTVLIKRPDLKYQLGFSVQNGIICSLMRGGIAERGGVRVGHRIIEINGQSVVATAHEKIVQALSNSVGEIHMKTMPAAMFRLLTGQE

T4: MPDZ_10, O75970
T4 sequence (O75970 1624-1722, limits assumed, looked up): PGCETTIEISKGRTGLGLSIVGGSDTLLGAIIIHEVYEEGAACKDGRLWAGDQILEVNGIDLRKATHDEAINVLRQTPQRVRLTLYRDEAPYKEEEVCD

T5: TX1BP3, O14907
T5 sequence (O14907 10-122, limits assumed, looked up): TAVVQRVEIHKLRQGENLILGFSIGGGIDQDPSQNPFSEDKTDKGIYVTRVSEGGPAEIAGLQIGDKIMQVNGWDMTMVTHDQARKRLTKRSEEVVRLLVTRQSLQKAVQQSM

T6: LIN7A, O14910
T6 sequence (O14910 103-200, limits assumed, looked up): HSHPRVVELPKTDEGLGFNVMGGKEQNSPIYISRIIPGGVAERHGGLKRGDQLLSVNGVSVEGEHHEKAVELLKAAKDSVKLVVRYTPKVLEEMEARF

T7: LNX2_2, Q8N448
T7 sequence (Q8N448 334-432, limits assumed, looked up): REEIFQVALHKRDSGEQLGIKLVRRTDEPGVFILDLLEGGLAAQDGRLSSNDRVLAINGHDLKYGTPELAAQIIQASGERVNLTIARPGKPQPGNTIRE

T8: MPP2, Q14168
T8 sequence (Q14168 180-250, limits assumed, looked up): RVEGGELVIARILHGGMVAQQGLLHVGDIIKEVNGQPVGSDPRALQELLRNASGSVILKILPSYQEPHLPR

T9: RADIL, Q96JH8
T9 sequence (Q96JH8 971-1071, limits assumed, looked up): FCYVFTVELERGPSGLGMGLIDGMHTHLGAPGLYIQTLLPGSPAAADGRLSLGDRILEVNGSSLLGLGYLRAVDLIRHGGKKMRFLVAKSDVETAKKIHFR

T10: DFNB31_2, Q9P202
T10 sequence (Q9P202 274-371, limits assumed, looked up): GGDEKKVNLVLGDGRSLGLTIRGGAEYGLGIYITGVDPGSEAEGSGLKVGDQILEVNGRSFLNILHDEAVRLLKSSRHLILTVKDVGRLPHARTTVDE

T11: PCLO, Q9Y6V0
T11 sequence (Q9Y6V0 4491-4600, limits assumed, looked up): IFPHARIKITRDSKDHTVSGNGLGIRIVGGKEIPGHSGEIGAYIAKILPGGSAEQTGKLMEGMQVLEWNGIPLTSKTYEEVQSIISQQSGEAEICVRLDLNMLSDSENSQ

T12: GRIP1_7, Q9Y3R0
T12 sequence (Q9Y3R0 999-1096, limits assumed, looked up): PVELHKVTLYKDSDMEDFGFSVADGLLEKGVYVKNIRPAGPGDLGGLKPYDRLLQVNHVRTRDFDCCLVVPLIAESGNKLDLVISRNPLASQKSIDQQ

B1: CAPN6, Q9Y6Q1 (peptide)
chain: VISSDDLTEL
B2: PLCB2, Q00722 (peptide)
chain: AKADAQESRL
B3: ZNF599, Q96NL3 (peptide)
chain: THHRKIHTRV
B4: CDK18, Q07002 (peptide)
chain: RGKNRRQSIF
B5: WWTR1, Q9GZV5 (peptide)
chain: NKSEPFLTWL

Each binder was assayed against MAGI1_2, Q96QZ7 (assay: holdup assay). Details: plain residues with an end cap or a label only (N-terminal biotin on a linker: ado-ado).
Set-up: key: below the threshold = too weak to quantify, mostly under pKd 3.1 to 4

Chain of MAGI1_2, Q96QZ7 (Q96QZ7 456-580): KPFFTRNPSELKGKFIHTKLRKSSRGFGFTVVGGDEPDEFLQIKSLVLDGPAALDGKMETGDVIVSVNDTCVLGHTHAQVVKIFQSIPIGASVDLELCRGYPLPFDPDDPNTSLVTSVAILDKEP

pKd	Binder
below the threshold	B1
below the threshold	B2
4.96	B3
3.91	B4
3.51	B5

The binders below were run against Inadl_9, Q8NI35 (assay: holdup assay). Details: plain residues with an end cap or a label only (N-terminal biotin on a linker: ado-ado).
Set-up: key: below the threshold = too weak to quantify, mostly under pKd 3.1 to 4

Chain of Inadl_9, Q8NI35 (Q8NI35 1530-1615): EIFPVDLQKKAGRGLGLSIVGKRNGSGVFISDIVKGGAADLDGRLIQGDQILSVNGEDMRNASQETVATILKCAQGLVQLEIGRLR

pKd	Binder
below the threshold	B1
below the threshold	B2
3.58	B3
below the threshold	B4
4.23	B5

What follows are binders tested against T1, HTRA4, P83105 (assay: holdup assay). Details: plain residues with an end cap or a label only (N-terminal biotin on a linker: ado-ado).
Set-up: key: below the threshold = too weak to quantify, mostly under pKd 3.1 to 4

pKd	Binder
3.92	B1
3.85	B2
below the threshold	B3
below the threshold	B4
4.6	B5

The binders below were run against MAGI3_2, Q5TCQ9 (assay: holdup assay). Details: plain residues with an end cap or a label only (N-terminal biotin on a linker: ado-ado).
Set-up: key: below the threshold = too weak to quantify, mostly under pKd 3.1 to 4

Chain of MAGI3_2, Q5TCQ9 (Q5TCQ9 398-503): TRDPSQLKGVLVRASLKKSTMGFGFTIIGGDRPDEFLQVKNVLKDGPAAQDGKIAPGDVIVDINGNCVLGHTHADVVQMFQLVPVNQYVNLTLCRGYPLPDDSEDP

pKd	Binder
below the threshold	B1
below the threshold	B2
5.32	B3
below the threshold	B4
3.89	B5

The binders below were run against IL16_3, Q14005 (assay: holdup assay). Details: plain residues with an end cap or a label only (N-terminal biotin on a linker: ado-ado).
Set-up: key: below the threshold = too weak to quantify, mostly under pKd 3.1 to 4

Chain of IL16_3, Q14005 (Q14005 1107-1207): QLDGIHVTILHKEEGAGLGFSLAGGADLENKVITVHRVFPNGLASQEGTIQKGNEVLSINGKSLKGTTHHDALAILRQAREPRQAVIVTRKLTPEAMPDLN

pKd	Binder
below the threshold	B1
below the threshold	B2
below the threshold	B3
below the threshold	B4
below the threshold	B5

These binders were tested against Inadl_8, Q8NI35 (assay: holdup assay). Details: plain residues with an end cap or a label only (N-terminal biotin on a linker: ado-ado).
Set-up: key: below the threshold = too weak to quantify, mostly under pKd 3.1 to 4

Chain of Inadl_8, Q8NI35 (Q8NI35 1425-1530): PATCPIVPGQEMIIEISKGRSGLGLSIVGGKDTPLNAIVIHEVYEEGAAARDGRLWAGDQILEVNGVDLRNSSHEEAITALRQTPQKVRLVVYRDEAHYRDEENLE

pKd	Binder
below the threshold	B1
below the threshold	B2
4.38	B3
below the threshold	B4
below the threshold	B5

What follows are binders tested against T2, NHERF3_4, Q5T2W1 (assay: holdup assay). Details: plain residues with an end cap or a label only (N-terminal biotin on a linker: ado-ado).
Set-up: key: below the threshold = too weak to quantify, mostly under pKd 3.1 to 4

pKd	Binder
below the threshold	B1
below the threshold	B2
3.55	B3
below the threshold	B4
4.15	B5

Each binder was assayed against FRMPD2_2, Q68DX3 (assay: holdup assay). Details: plain residues with an end cap or a label only (N-terminal biotin on a linker: ado-ado).
Set-up: key: below the threshold = too weak to quantify, mostly under pKd 3.1 to 4

Chain of FRMPD2_2, Q68DX3 (Q68DX3 944-1038): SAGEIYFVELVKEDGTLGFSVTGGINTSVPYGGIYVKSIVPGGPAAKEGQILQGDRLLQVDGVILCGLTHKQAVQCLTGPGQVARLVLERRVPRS

pKd	Binder
below the threshold	B1
below the threshold	B2
3.52	B3
below the threshold	B4
4.29	B5

The binders below were run against T3, APBA2_2, Q99767 (assay: holdup assay). Details: plain residues with an end cap or a label only (N-terminal biotin on a linker: ado-ado).
Set-up: key: below the threshold = too weak to quantify, mostly under pKd 3.1 to 4

pKd	Binder
below the threshold	B1
below the threshold	B2
3.49	B3
3.5	B4
below the threshold	B5

The binders below were run against TJP2_1, Q9UDY2 (assay: holdup assay). Details: plain residues with an end cap or a label only (N-terminal biotin on a linker: ado-ado).
Set-up: key: below the threshold = too weak to quantify, mostly under pKd 3.1 to 4

Chain of TJP2_1, Q9UDY2 (Q9UDY2 24-128): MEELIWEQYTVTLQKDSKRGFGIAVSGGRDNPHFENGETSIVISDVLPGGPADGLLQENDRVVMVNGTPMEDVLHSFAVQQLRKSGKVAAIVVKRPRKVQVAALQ

pKd	Binder
below the threshold	B1
below the threshold	B2
4.6	B3
3.47	B4
5.59	B5

Each binder was assayed against T4, MPDZ_10, O75970 (assay: holdup assay). Details: plain residues with an end cap or a label only (N-terminal biotin on a linker: ado-ado).
Set-up: key: below the threshold = too weak to quantify, mostly under pKd 3.1 to 4

pKd	Binder
below the threshold	B1
below the threshold	B2
3.92	B3
3.48	B4
below the threshold	B5

Each binder was assayed against T5, TX1BP3, O14907 (assay: holdup assay). Details: plain residues with an end cap or a label only (N-terminal biotin on a linker: ado-ado).
Set-up: key: below the threshold = too weak to quantify, mostly under pKd 3.1 to 4

pKd	Binder
below the threshold	B1
3.96	B2
3.74	B3
below the threshold	B4
4.49	B5

The binders below were run against T6, LIN7A, O14910 (assay: holdup assay). Details: plain residues with an end cap or a label only (N-terminal biotin on a linker: ado-ado).
Set-up: key: below the threshold = too weak to quantify, mostly under pKd 3.1 to 4

pKd	Binder
below the threshold	B1
3.65	B2
below the threshold	B3
below the threshold	B4
below the threshold	B5

What follows are binders tested against TJP1_2, Q07157 (assay: holdup assay). Details: plain residues with an end cap or a label only (N-terminal biotin on a linker: ado-ado).
Set-up: key: below the threshold = too weak to quantify, mostly under pKd 3.1 to 4

Chain of TJP1_2, Q07157 (Q07157 181-274): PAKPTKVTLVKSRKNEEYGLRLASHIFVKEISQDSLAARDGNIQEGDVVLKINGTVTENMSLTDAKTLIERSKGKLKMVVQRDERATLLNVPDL

pKd	Binder
below the threshold	B1
below the threshold	B2
3.62	B3
below the threshold	B4
below the threshold	B5

What follows are binders tested against T7, LNX2_2, Q8N448 (assay: holdup assay). Details: plain residues with an end cap or a label only (N-terminal biotin on a linker: ado-ado).
Set-up: key: below the threshold = too weak to quantify, mostly under pKd 3.1 to 4

pKd	Binder
below the threshold	B1
below the threshold	B2
3.82	B3
3.58	B4
4.44	B5

Each binder was assayed against T8, MPP2, Q14168 (assay: holdup assay). Details: plain residues with an end cap or a label only (N-terminal biotin on a linker: ado-ado).
Set-up: key: below the threshold = too weak to quantify, mostly under pKd 3.1 to 4

pKd	Binder
below the threshold	B1
below the threshold	B2
below the threshold	B3
3.54	B4
3.62	B5

These binders were tested against FRMPD2_3, Q68DX3 (assay: holdup assay). Details: plain residues with an end cap or a label only (N-terminal biotin on a linker: ado-ado).
Set-up: key: below the threshold = too weak to quantify, mostly under pKd 3.1 to 4

Chain of FRMPD2_3, Q68DX3 (Q68DX3 1073-1166): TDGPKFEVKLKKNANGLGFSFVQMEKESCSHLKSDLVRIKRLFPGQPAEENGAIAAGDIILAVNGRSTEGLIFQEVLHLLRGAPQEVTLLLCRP

pKd	Binder
below the threshold	B1
below the threshold	B2
3.53	B3
below the threshold	B4
below the threshold	B5

Each binder was assayed against T9, RADIL, Q96JH8 (assay: holdup assay). Details: plain residues with an end cap or a label only (N-terminal biotin on a linker: ado-ado).
Set-up: key: below the threshold = too weak to quantify, mostly under pKd 3.1 to 4

pKd	Binder
below the threshold	B1
below the threshold	B2
3.62	B3
below the threshold	B4
5.57	B5

Each binder was assayed against LNX1_3, Q8TBB1 (assay: holdup assay). Details: plain residues with an end cap or a label only (N-terminal biotin on a linker: ado-ado).
Set-up: key: below the threshold = too weak to quantify, mostly under pKd 3.1 to 4

Chain of LNX1_3, Q8TBB1 (Q8TBB1 500-596): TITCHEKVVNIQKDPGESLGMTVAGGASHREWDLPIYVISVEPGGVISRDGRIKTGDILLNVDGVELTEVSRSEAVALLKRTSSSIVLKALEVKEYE

pKd	Binder
below the threshold	B1
below the threshold	B2
below the threshold	B3
below the threshold	B4
below the threshold	B5

What follows are binders tested against Inadl_5, Q8NI35 (assay: holdup assay). Details: plain residues with an end cap or a label only (N-terminal biotin on a linker: ado-ado).
Set-up: key: below the threshold = too weak to quantify, mostly under pKd 3.1 to 4

Chain of Inadl_5, Q8NI35 (Q8NI35 673-780): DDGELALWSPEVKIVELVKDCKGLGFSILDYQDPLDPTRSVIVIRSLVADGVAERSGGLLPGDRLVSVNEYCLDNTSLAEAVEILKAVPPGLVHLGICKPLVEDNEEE

pKd	Binder
below the threshold	B1
below the threshold	B2
3.49	B3
below the threshold	B4
below the threshold	B5

What follows are binders tested against T10, DFNB31_2, Q9P202 (assay: holdup assay). Details: plain residues with an end cap or a label only (N-terminal biotin on a linker: ado-ado).
Set-up: key: below the threshold = too weak to quantify, mostly under pKd 3.1 to 4

pKd	Binder
below the threshold	B1
below the threshold	B2
below the threshold	B3
below the threshold	B4
below the threshold	B5

These binders were tested against MAGI1_1, Q96QZ7 (assay: holdup assay). Details: plain residues with an end cap or a label only (N-terminal biotin on a linker: ado-ado).
Set-up: key: below the threshold = too weak to quantify, mostly under pKd 3.1 to 4

Chain of MAGI1_1, Q96QZ7 (Q96QZ7 1-106): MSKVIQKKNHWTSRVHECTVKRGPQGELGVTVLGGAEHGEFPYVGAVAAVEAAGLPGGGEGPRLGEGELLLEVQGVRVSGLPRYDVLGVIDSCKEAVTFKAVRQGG

pKd	Binder
below the threshold	B1
below the threshold	B2
3.58	B3
below the threshold	B4
3.69	B5

Each binder was assayed against Inadl_10, Q8NI35 (assay: holdup assay). Details: plain residues with an end cap or a label only (N-terminal biotin on a linker: ado-ado).
Set-up: key: below the threshold = too weak to quantify, mostly under pKd 3.1 to 4

Chain of Inadl_10, Q8NI35 (Q8NI35 1673-1763): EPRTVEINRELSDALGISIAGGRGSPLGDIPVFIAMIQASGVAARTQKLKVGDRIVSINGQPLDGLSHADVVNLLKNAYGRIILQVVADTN

pKd	Binder
below the threshold	B1
below the threshold	B2
below the threshold	B3
below the threshold	B4
4.63	B5

The binders below were run against T11, PCLO, Q9Y6V0 (assay: holdup assay). Details: plain residues with an end cap or a label only (N-terminal biotin on a linker: ado-ado).
Set-up: key: below the threshold = too weak to quantify, mostly under pKd 3.1 to 4

pKd	Binder
below the threshold	B1
below the threshold	B2
below the threshold	B3
below the threshold	B4
below the threshold	B5

The binders below were run against T12, GRIP1_7, Q9Y3R0 (assay: holdup assay). Details: plain residues with an end cap or a label only (N-terminal biotin on a linker: ado-ado).
Set-up: key: below the threshold = too weak to quantify, mostly under pKd 3.1 to 4

pKd	Binder
below the threshold	B1
below the threshold	B2
below the threshold	B3
below the threshold	B4
below the threshold	B5

These binders were tested against ARHGEF12, Q9NZN5-2 (assay: holdup assay). Details: plain residues with an end cap or a label only (N-terminal biotin on a linker: ado-ado).
Set-up: key: below the threshold = too weak to quantify, mostly under pKd 3.1 to 4

Chain of ARHGEF12, Q9NZN5-2 (Q9NZN5 other isoform, or with tags, fused parts or gaps): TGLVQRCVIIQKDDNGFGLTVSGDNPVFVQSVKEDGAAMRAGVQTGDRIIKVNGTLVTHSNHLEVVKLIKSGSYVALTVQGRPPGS

pKd	Binder
4.91	B1
3.93	B2
4.3	B3
below the threshold	B4
4.95	B5
